This data set can be described thus: soluble on expression in E. coli; label from the status in PepcDB or PDB records.
As for “MSEPLHALARQLEQAIRASEPFQQLKRAYEDVRRDETAYRMFANVRDIQLRLHEKQMRGAAILPDEIEQAQKAMALAQQNEKLARLMALEQQMSITIAEVQQIAMKPLEELHRSFMEGR”, the “soluble on expression in E. coli” value is “soluble”.

As to “MSEPLIVGIRHHSPACARLVKSLIESQRPRYVLIEGPADFNDRVDELFLAHQLPVAIYSYCQYQDGAAPGRGAWTPFAEFSPEWQALQAARRIQAQTYFIDLPCWAQSEEEDDSPDTQDESQALLLRATRMDNSDTLWDHLFEDESQQTALPSALAHYFAQLRGDASGDALNRQREAFMARWIGWAMQQNNGDVLVVCGGWHAPALAKMWRECPQKINKPELPSLADAVTGCYLTPYSEKRLDVLAGYLSGMPAPVWQNWCWQWGLQKAGEQLLKTILTRLRQHKLPASTADMAAAHLHAMALAQLRGHTLPLRTDWLDAIAGSLIKEALNAPLPWSYRGVIHPDTDPILLTLIDTLAGDGFGKLAPSTPQPPLPKDVTCELERTAISLPAELTLNRFTPDGLAQSQVLHRLAILEIPGIVRQQGSTLTLAGNGEERWKLTRPLSQHAALIEAACFGATLQEAARNKLEADMLDAGGIGSITTCLSQAALAGLASFSQQLLEQLTLLIAQENQFAEMGQALEVLYALWRLDEISGMQGAQILQTTLCATIDRTLWLCESNGRPDEKEFHAHLHSWQALCHILRDLHSGVNLPGVSLSAAVALLERRSQAIHAPALDRGAALGALMRLEHPNASAEAALTMLAQLSPAQSGEALHGLLALARHQLACQPAFIAGFSSHLNQLSEADFINALPDLRAAMAWLPPRERGTLAHQVLEHYQLAQLPVSALQMPLHCPPQAIAHHQQLEQQALASLQNWGVFHV”, the “soluble on expression in E. coli” value is reported as “not soluble”.

As for “MSEQKRRTIQIAISEDHYEELQKALELLKGTQLPFSTTVEQFVELILSNYVATSNKISSLAKSGFDVASLQQELEKIGNLSGVDDNLKGFLSELLKTSRNGFSNPNKDGKKNDDDNNSSSKS”, the “soluble on expression in E. coli” value is “soluble”.

With “MSERAYNFNAGPAALPLEVLERAQAEFVDYQHTGMSIMEMSHRGAVYEAVHNEAQARLLALLGNPTGYKVLFIQGGASTQFAMIPMNFLKEGQTANYVMTGSWASKALKEAKLIGDTHVAASSEASNYMTLPKLQEIQLQDNAAYLHLTSNETIEGAQFKAFPDTGSVPLIGDMSSDILSRPFDLNQFGLVYAGAQKNLGPSGVTVVIVREDLVAESPKHLPTMLRYDTYVKNNSLYNTPPSFGIYMVNEVLKWIEERGGLEGVQQANRKKASLIYDAIDQSGGFYRGCVDVDSRSDMNITFRLASEELEKEFVKASEQEGFVGLKGHRSVGGLRASIYNAVPYESCEALVQFMEHFKRSRG”, the “soluble on expression in E. coli” value is listed as “soluble”.

In the case of “MSESSVTTEIVVRLPKQMVTELDGIGKQENKNRHELICQATQLLLRQHKTKKRYQHESMRRGYIEMGKINLGIASEAFLAEYEAAHTVERLVSGG”, the “soluble on expression in E. coli” value is “not soluble”.

As to “MSETPLLFQTRDYRGATIEDLNIPLAVSINPTTSIYEAIGIAFENEFTYLPVIHERTKRLLGVINIEELKSNGDKLKRSILAPIVKSYMIWFNQSAKRKYEQENKEVLSSNRTAPKTTILKPRGKRYEVLTPMTPLEKLAEFFNSGNYFAIVTNGHGDFVYGVVTPQDLMKYEQSRPKL”, the “soluble on expression in E. coli” value is given as “soluble”.

“MSEVDKAHLAAINKDVQANDTLFGKIIRKEIPAKIIFEDDEALAFHDVSPQAPIHFLVIPKRRIDMLENAVDSDAALIGKLMVTASKVAKQLGMANGYRVVVNNGKDGAQSVFHLHLHVLGGRQLQWPPG”: the “soluble on expression in E. coli” value is listed as “not soluble”.

“MSEVIQDRRSAVDTARAGHMLERARWAAAAYGEYDAATVEGIVAAVAEAAHAHAERFAADAVAETGMGVVADKVRKNRACSRGIVEYYRGHDYISPRVDPDRKIVELPRPAGVVLALTPTTNPVATVYFKTILALMTRNAVVVAPHPRAARCSAEAARVLAEAAVAAGAPDGVVQVIDEPSIPLVQALMADERTDVIVATGGTAVVRAAYSSGNPALGVGPGNVPVLVDASADVAAAAQRIVDSKAFDNSVLCTNESVLIAEDAVADKLRAALTRAGAHILDEDGARRLRAYMFADGHLNTDVVGRDAAWIAGQAGLRVTPKTRVLIAPFDHVIAEEMLAHEKLSPVLGMTTVADAARGIRAARAVVRIGGAGHSAAIHSENPAVITDFAAQVPVLRVSVNVGNSTGSAGLDTNLAPSMTIGTGFVGRSSIGENLQPHNLVNWTRIAYNSDPGVVMGNFTGIDPWRAPAGPVPAYPRASNDRDGAVIQAAPQRSYQSPSRTTDVNLDALRAELRALVVEELAQLIKR”: the “soluble on expression in E. coli” value is reported as “not soluble”.

For “MSEVNKKVQDGVDDYLEEEDFGQLLEAFDKSREEATTEGVIVEIKNDEVYVDIGKKSEGILALSEIQGDNSKLLFNVGDSIKVAVMGSRGGRSLLSHKKALRKEKVIEFIKNYQENQDDIFTVKVVGKNKGGLIVVDENDVEFFLPKSQYGFKETNNIIGKTFKVKIIKIDKDEQSIIVSRKKTLDDERRKRKELINNVAQQEDLIEGIVKKITTYGMFVDVGGVDGLVHYSEISYKGPVNPGTLYKEGDKVPVKVIKYDKERKHLSLSIKAALPDPWSEIKDTLDIGDTIKVIVSNIEPYGAFVDLGNDIEGFLHISEISWDKNIKNPKDYINKGQEIDVEVIEINPNERRLRVSLRNLLSRPFDEFMKSYKIADVVEGEITSVTSFGAFVKLGGIEGLLHNEDASWDRNDKCKDKFSQGDKIKVKIIKIDEENQKISLSTKELSSSPVQEYAKIHKVGDIVKGAIRDIKDFGVFVELSKNVDALIHKEDISTSMLENLKIGDDIEAAIVFIDEKKNRIRLSVKNLVRIKEREVLNEINNDDKVTLGDIIKDQLALEHHHHHH”, the “soluble on expression in E. coli” value was “soluble”.

For the sequence “MSEVYRLTCIVCPLSCSIEVEIEAGKIKDIKGYTCPRGKEWAIEEIRAPKRVVMSVIPVEGGKLPTVSVKTEKPIPKDKIPELMKMLAKLKLKAPVKVGQVVGEFEGVKIIATREALEHHHHHH”, the “soluble on expression in E. coli” value was “not soluble”.

Take “MSFEAFTELYIRDVKNRLKENTWLTKEHIIRTKILPFFGKLKISEISTKEIITWQNEMLAYRDEKKKPYSQTYLKTLHNQLSAIFNHAVRYYELRSNPAAKVGNMGSELEHHHHHH”: the “soluble on expression in E. coli” value was “not soluble”.

With “MSFETISVIGLGYIGLPTAAAFASRKKKVIGVDVNAHAVETINRGAIHIVEPDLDKVVKIAVEGGYLQAVTKPQAADAFLIAVPTPFKGDHEPDMIFVESAAKSIAPVLKKGDLVILESTSPVGATEQMAQWLAEARPDLSFPQQAGEAADINIAYCPERVLPGQVMVELIQNDRVIGGMTPKCSARASALYKIFLEGECVVTNSRTAEMCKLTENSFRDVNIAFANELSLICDEQGINVWELIRLANRHPRVNILQPGPGVGGHCIAVDPWFIVSQNPQLARLIHTARLVNDGKPLWVVDRVKAAVADCLAASDKRASEVKIACFGLAFKPDIDDLRESPAVGVARLIAEWHVGETLVVEPNVEQLPKSLMGLVTLKDTATALQQADVLVMLVDHKQFKAIKPEDIKQQWIVDTKGVWR”, the “soluble on expression in E. coli” value is recorded as “not soluble”.

As for “MSFFHANQREALNQSLSELQGQINVSFEFFPPRTSEMEDTLWSSIDRLSTLKPKFVSVTYGANSGERDRTHSIIKGIKERTGLEAAPHLTCIDASPTQLRDIAIDYWNSGIRHIVALRGDLPPNSGKPEMYACDLVGLLKDVGDFDISVAAYPEIHPEAKSAQADLINLKRKIDAGANRAITQFFFDVESYLRFRDRCVATGIDVEIVPGILPVSNFKQLQRFATMTNVRVPNWMTSIFDGLDNDPETRKMVGASVAMDMVKILSREGVKDFHFYTLNRAELSYAICHTLGVRP”, the “soluble on expression in E. coli” value is recorded as “not soluble”.

Regarding “MSFIAYPCAVPTQRQVPMSPPTTPRILMKLCPIMEIPIIGGPRQNGTYNVFIFDLKIRKFIPHRCSSCAVKILEDHLSPMYASGSVIFMRNEVTQEVEQYVYSFETGGFQQVDYPELVYSAEKFTESSFIVMIENSDGKKVLIERGGNEAVRKLEYRLGKCVEMPKVEVQLLAAEEFDDADPWSDNDSLSSEHLDYNETLPAFKTTFCQDFQMYVLYIITSRGHYEKYIYNQSTSQFEILDCEKCPDTTREVDLLPKYAEFCEEIQAYVIHVFNSFTDRMEQYVFDSKIQGFVEVNQPELKYDSSKDQDPTSSIFFVLKGTTVIMRGAQGRLKKEVYCSIKKHFVEVPNSVIKSFDTQFMEKKQKMDKKKKAKKIKKSKKKASKESQELDVLVEKIRLCDDPFSDGPSCSTSPDIPEDAPDDGMSILKQKFVESLTTLYGGSLPPYVQKELEQI”, the “soluble on expression in E. coli” value was “not soluble”.

“MSFLQHYKSGNLVLPSALLFHYKDIFSNADDFLVWQFFYFQNTTKMEDIATSQIATAIGKTVPEVNRSVSNLISQELLDMKTIELDGESEVLFDATLALKKLDDLLTAADETTVSSSKGISNALKDLVEDFERELGRMLSPFELEDLQKTVSDDKTDPDLVRSALREAVFNGKTNWNYIQAILRNWRHEGISTLRQVEERRKEREQANPANVTVSDDFLSAMNLWSDSDAR”: the “soluble on expression in E. coli” value is reported as “not soluble”.

With “MSFPAASIDLGTNTARLLIGSVEAGRIEHLLVKRHITRLGGGFTKERGISPEAWSRSLAALVDFADEMNRAGVVRVRAVATSAVRDAVNGGDFCADVAERTGISLEVIDGEEEALLTLAGVLSGLDRKEGRFFVFDVGGGSTEYTLASGNAPLYTESLPLGVVRLTEGKSDLPAMEEKVGRELAGLRERLAGRALDGQLAGATLVGTAGTATTLAAISLGMTDYDYRRVNNHLLSRDEIARILALLLPLSPAERLAVPGLEKGREDLIVAGTLITLATMDLFGFESMTVSDFGLLEGALIGLARTDELEHHHHHH”, the “soluble on expression in E. coli” value is “not soluble”.

Regarding “MSFRPEYKEYFKQGATARIYNGAFEDAGFYDEVDIKEFEYSREEKTFYYPCPCGDRFEISLEDLRNGEVVARCPSCSLIVCTVYEAEDLEKYL”, the “soluble on expression in E. coli” value is listed as “not soluble”.

Take “MSFSKLLDLLTGREAQRTAIDWDAKYGTDTRSTVELHGLTISHDSRRFGERYQASDPSALSDALAFVGLDPRSYRFVDLGCGKGRMLIVAAELGFKSCIGVEFADELAQTAKANAAAAGFDTISVVHGDAGAYAFQDEPFVLYLFNPFSHQIMQRVRDNLLKLRRAEYYVIYKNPRERRIFDEMQTLRYLGTPPAHKGVWGVHVWGPRGELEHHHHHH”: the “soluble on expression in E. coli” value is reported as “not soluble”.

As to “MSFVSVLSIAHKKGRGWPLLDMEIRELCCMLHKVFYLVRCTGIGFDFFRKFVLILFLAYTFKTIDSMASERKLKKQITGAISEVFTDAFLLKLFVKEEKNAEVETILNRILQLQDTTIAKIRCNDGKHNPALVKKYYRRLVDDFKEELSEIVKSISACASDN”, the “soluble on expression in E. coli” value was “not soluble”.

In the case of “MSGIFSVYVGNAPFQTTEEELGNFFSSIGQINNVRIVCDRETGRPRGFAFIEFAEEGSAQRAVEQMNGAEFNGRPLRVNLANK”, the “soluble on expression in E. coli” value is “soluble”.

Consider “MSGKERNLPTHRISRFSKFASLATRVAGNVIAEGTKQIAKGNRPKAKDLLLTPQNIARLTDQLAHLRGAAMKLGQMLSMDAGDILEPELAEILARLRSNADPMPSKQLNSVMVNALGEQWKSAFLAFNFKPIASASIGQVHQAYSDAGDNLAVKVQYPGIRKSIDSDVDNVGTLLKIVGLIPESVDYKGLLEEAKKQLYDEANYEREAQFACRYHEALQGHPHFVVPKIYPEISSQSVLAMSFIQGTPIEKIANYDQETRDFVMHNLLELLFKELFEFKMVQTDPNFANYLYLEESKQIGLLDFGATREYSERFSSGYRQAFSSVVNDDEQGLNDALEQIGFFAQSIKPEQRMAILDLVKMACEPMLIDEAYDFKASGLAQKLREAGTILSMEQDYWHTPPADAIFLHRKIGGMYLLAARIGAKVNIRRLVQPYLKINSGLEHHHHHH”, for which the “soluble on expression in E. coli” value was “not soluble”.

Values taken from the DeepSol protein solubility set.
